Twelve molecules from PMC5172437 can be followed below.

Like-named read-outs stand apart in the source and are kept apart here.

The target of data set [1] is T1, human tumor necrosis factor alpha (hTNFa) (human, UniProt P01375 77-233). Briefly: ELONA.
Data set [2] addresses T1, human tumor necrosis factor alpha …. Briefly: ELONA. The source holds these as a separate data set.
For data set [3] the target is unchanged. Briefly: ELONA. This is another data set of the same source.
Data set [4] shares this target.
The target is the same in data set [5]. The source holds these as a separate data set.

T1 sequence (P01375 77-233): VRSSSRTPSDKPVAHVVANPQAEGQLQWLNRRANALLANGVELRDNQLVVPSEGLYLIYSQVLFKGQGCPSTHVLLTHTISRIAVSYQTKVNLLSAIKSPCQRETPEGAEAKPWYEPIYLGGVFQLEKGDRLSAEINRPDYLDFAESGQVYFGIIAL

On to CGUAUAUACGGAUUAGGUUGUAGCUCAGACCAGUAAUGUC (ssRNA) [14.8 random region], for which the binding result in data set [1] was “binds”.
Turning to CAUGGGCUAGACCGGCAUAAAACUGCUGUAGUUGCACGCC (ssRNA) [17.9 random region], in data set [2], the binding result was “binds”.
As for GGUCCCACAUAGGUUGGUCUUGUUGUAUGGGCUGUUUGCA (ssRNA) [18.10 random region], the binding result in data set [2] was “binds”.
Same read-out and setting: under CGUUGUAGUAGUGGCUUGGGCAUAACUCAGUUAAACACUA (ssRNA) [20.4 random region] stands “binds”.
For CAAGCCGAGGGGGAGUAUCUGAUGACAAUUCGGAGCUCCA (ssRNA) [11.7 random region], in data set [3], the binding result is “binds”.
As for AGGACGUACUUGGAAAAGAGGCGCGAAGAACCUGGUAUGU (ssRNA) [8.6 random region], the binding result in data set [2] is “binds”.
Regarding CGCAUCGUUUGCGUGGCGUGUCCGGGCGCCGAUUCGUAAA (ssRNA) [7.5 random region], the binding result in data set [1] is reported as “binds”.
CCCCGGGUUCUGUAUGAUCCGACCGGUCAGAUAAGACCAC (ssRNA) [3.1 random region]: in data set [2], the binding result is “binds”.
Consider UCAUGGUGUGUGAGUUAGCUCACGUGCCGUUUCGAAGGCG (ssRNA) [13.2 random region], for which the binding result in data set [1] is on record as “binds”.
For the molecule CGUGCUAGAUGCUACGAGUGGUCUCCUCACGUAGAAGGGG (ssRNA) [16.3 random region], in data set [2], the binding result is on record as “binds”.
Turning to UACGGAUUAGGUUGUAGCUCAGACCAGUA (ssRNA) [T4.14.8 (29 nt)], the binding result in data set [4] was “binds”.
For the molecule GGAGUAUCUGAUGACAAUUCGGAGCUCC (ssRNA) [T3.11.7 (28 nt)], the binding result in data set [5] is “binds”.
